B1: REGN10987 (antibody, V domains shown)
VH: QVQLVESGGGVVQPGRSLRLSCAASGFTFSNYAMYWVRQAPGKGLEWVAVISYDGSNKYYADSVKGRFTISRDNSKNTLYLQMNSLRTEDTAVYYCASGSDYGDYLLVYWGQGTLVTVSS
VL: QSALTQPASVSGSPGQSITISCTGTSSDVGGYNYVSWYQQHPGKAPKLMIYDVSKRPSGVSNRFSGSKSGNTASLTISGLQSEDEADYYCNSLTSISTWVFGGGTKLTVL
B2: S2K146 (antibody, V domains shown)
VH: QVQLVESGGVVVQPGGSLRLSCAASGFTFHDHTMHWVRQAPGKGLEWVSLITWNGGTIHYSDSVKGRFTISRDNSKNSLYLQMNSLRTEDTALYYCAKDLGRGGWYLPSDAWGQGTLVTVSS
VL: not shown
B3: LY-CoV1404 (antibody, V domains shown)
VH: QITLKESGPTLVKPTQTLTLTCTFSGFSLSISGVGVGWLRQPPGKALEWLALIYWDDDKRYSPSLKSRLTISKDTSKNQVVLKMTNIDPVDTATYYCAHHSISTIFDHWGQGTLVTVSS
VL: QSALTQPASVSGSPGQSITISCTATSSDVGDYNYVSWYQQHPGKAPKLMIFEVSDRPSGISNRFSGSKSGNTASLTISGLQAEDEADYYCSSYTTSSAVFGGGTKLTVL
B4: BD55–5840 (antibody, V domains shown)
VH: VQLAQSGSELRKPGASVKVSCDTSGHSFTSNAIHWVRQAPGQGLEWMGWINTDTGTPTYAQGFTGRFVFSLDTSARTAYLQISSLKADDTAVFYCARERDYSDYFFDYWGQGTLVTVSS
VL: EVVMTQSPASLSVSPGERATLSCRARASLGISTDLAWYQQRPGQAPRLLIYGASTRATGIPARFSGSGSGTEFTLTISSLQSEDSAVYYCQQYSNWPLTFGGGTKVEIK
B5: Inverse folding design from the LY-CoV1404 starting point (Table 5, design row 2, the 5th table, row 13) (antibody, V domains shown)
VH: B3 VH
VL: B3 VL with D31I, S97A
B6: Inverse folding design from the LY-CoV1404 starting point (Table 5, design row 1, the 5th table, row 12) (antibody, V domains shown)
VH: B3 VH with I31T
VL: B3 VL with D31N, T95S, A98V
B7: Inverse folding design from the DXP-604 starting point (Table 5, design row 1, the 5th table, row 4) (antibody, V domains shown)
VH: EVQLVESGGGLIQPGGSLRLSCAASGIIVSRNYMTWVRQAPGKGLEWVSVIYSGGSTFYADSVKGRFTISRDNSKNTLYLQMSSLRAEDTAVYYCARDLGPYGMDVWGQGTTVTVSS
VL: DIQLTQSPSFLSASVGDRVTITCRASQGISSDLAWYQQKPGKAPNLLIYAASTLQSGVPSRFSGSGSGTEFTLTISSLQPEDFATYYCQQLMDTLYTFGQGTKLEIK
B8: Inverse folding design from the DXP-604 starting point (Table 5, design row 4, the 5th table, row 7) (antibody, V domains shown)
VH: B7 VH with S56T
VL: B7 VL with S30G, M92N, D93S, T94D
B9: Inverse folding design from the DXP-604 starting point (Table 5, design row 6, the 5th table, row 9) (antibody, V domains shown)
VH: B7 VH
VL: B7 VL with S30G, M92N, D93S, T94D
B10: Inverse folding design from the DXP-604 starting point (Table 5, design row 7, the 5th table, row 10) (antibody, V domains shown)
VH: B7 VH
VL: B7 VL with M92N, D93S, T94D
B11: Inverse folding design from the DXP-604 starting point (Table 5, design row 3, the 5th table, row 6) (antibody, V domains shown)
VH: B7 VH
VL: B7 VL with M92N, T94L
B12: Inverse folding design from the DXP-604 starting point (Table 5, design row 5, the 5th table, row 8) (antibody, V domains shown)
VH: B7 VH with S53P, P101V
VL: B7 VL with M92N, T94Y
B13: Inverse folding design from the DXP-604 starting point (Table 5, design row 2, the 5th table, row 5) (antibody, V domains shown)
VH: B7 VH with S56T, G100A, P101V
VL: B7 VL with S30G, M92N, D93S, T94D

Substitutions are numbered along the chain they refer to.

One test has as its target T1, SARS-CoV-2 Spike RBD, original (Wuhan) strain (SARS-CoV-2, original Wuhan strain, UniProt P0DTC2). Kind of test: SPR. For orientation: Surface plasmon resonance follows binding to a sensor surface in real time, without labels.
Turning to B1, the pKD was 7.84 -log10(KD).
B2: the pKD was 10.3 -log10(KD).
For B3, the pKD was 9.01 -log10(KD).
On to B4, for which the pKD is 10.1 -log10(KD).

The target of another test is T1, SARS-CoV-2 Spike RBD, original (Wuhan) …. Kind of test: SPR. The source holds these as a separate data set.
For B5, the pKD is 9.48 -log10(KD).
Still for that read-out and setting: the value for B6 was 9.57 -log10(KD); that for B7 was 10 -log10(KD).
For the molecule B8, the pKD was 9.53 -log10(KD).
As for B9, the pKD was 10 -log10(KD).
On to B10, for which the pKD is 10.6 -log10(KD).
The same measure, in the same setting: to B11 belongs 9.38 -log10(KD).
As for B12, the pKD was 10.8 -log10(KD).
Still for that read-out and setting: the value for B13 was 10.2 -log10(KD).

Another test deals with SARS-CoV-2 Spike RBD, XBB.1.5 strain (SARS-CoV-2, Omicron XBB.1.5, strain). Put plainly: SPR.
Take B7: the pKD was 6.33 -log10(KD).
Turning to B8, the pKD was 6.35 -log10(KD).
As to B9, the pKD is 6.28 -log10(KD).
Take B10: the pKD is 6.07 -log10(KD).
The same measure, in the same setting: the value for B11 was 6.01 -log10(KD); that for B12 was 6.33 -log10(KD); that for B13 was 6.15 -log10(KD).

Source of the values: publication PMC12164381 (mAbs, 2025).
